Test results published in US20200079854A1 (Johns Hopkins, published 2020).
Positions count from the first letter of the chain named. Numbers in names are those of the source. Each block holds one binder with its values, some of them ahead of it.

Tests used:
[1] = target: T1, KRAS wt(7-16) peptide … with HLA-A3 and b2M on cells (human); assay: flow cytometry, phage-displayed scFv on peptide-pulsed T2A3 cells (FIG. 7)
T1 construct: peptide-pulsed T2A3 cells in flow cytometry
Protocol: (§1) The pulsed cells were pelleted, washed once in cold stain buffer (PBS containing 0.5% BSA, 2 mM EDTA, and 0.1% sodium azide), and resuspended in 100 μL of stain buffer. Phage staining was performed on ice with 10 uL (approximately 1×10⁹) phage for 1 hour in 100 uL total volume, followed by one 4 mL wash in cold stain buffer. Cells were then stained with 1 uL of rabbit anti-M13 antibody (Pierce, Rockford, Ill.) in 100 uL total volume on ice for 1 hour and washed once with 4 mL of cold stain buffer. Cells were stained with anti-rabbit-PE (Biolegend) on ice for 1 hour in 100 uL total volume, followed by incubation with LIVE/DEAD Fixable Near-IR Dead Cell Stain (Thermo Fisher) for 10 min at room temperature per manufacturer's instructions. Cells were washed once in 4 mL of stain buffer followed by resuspension in 300 uL of stain buffer before analysis. Stained cells were analyzed using an LSRII flow cytometer (Becton Dickinson, Mansfield, Mass.).

[2] = target: T2, IDH2 wt(134-143) peptide … with HLA-B7 and b2M on cells (human); assay: flow cytometry, phage-displayed scFv on peptide-pulsed RPMI-6666 cells (FIG. 3)
T2 construct: peptide-pulsed RPMI-6666 cells in flow cytometry
Protocol: Cells were stained with 10 μL of precipitated phage per 100 μL of cells, washed and stained with rabbit anti-M13 antibody, then washed and stained with anti-Rabbit-PE antibody. Cells were stained with a live/dead Near-IR dye, washed, and analyzed by an LSRII flow cytometer.
as §1

[3] = target: T3, IDH2 wt peptide (…) HLA-B7 biotinylated monomer (biotinylated (site not given)); assay: phage ELISA on monomer-coated streptavidin plate (FIG. 1)
T3 construct: also called wt version of the peptide of interest in complex with the same HLA allele

[4] = target: control 1 peptide (…, artificial sequence) HLA-B7 biotinylated monomer (biotinylated (site not given)); assay: as above
[5] = target: control 3 peptide (…, a different peptide from wt IDH2) HLA-B7 biotinylated monomer (biotinylated (site not given)); assay: as above
[6] = target: CTNNB wt(41-49) peptide … with HLA-A3 and b2M on peptide-pulsed T2A3 cells (human); assay: flow cytometry, phage-displayed scFv on peptide-pulsed T2A3 cells (FIG. 12)
Protocol: (§2) Cells were stained with 10 of precipitated phage per 100 μL of cells, washed and stained with rabbit anti-M13 antibody, then washed and stained with anti-Rabbit-PE antibody. Cells were stained with a live/dead Near-IR dye, washed, and analyzed by an LSRII flow cytometer.
as §1

[7] = target: KRAS wt(7-16) peptide … with HLA-A11 and b2M on peptide-pulsed Hs611.T cells (human); assay: flow cytometry, phage-displayed scFv on peptide-pulsed Hs611.T cells (FIG. 9)
Protocol: as §2, §1

- binding result [7]: no binding
B8: KRAS_G12D_A11_D22 (scFv)
scFv: DIQMTQSPSSLSASVGDRVTITCRASQDVNTAVAWYQQKPGKAPKLLIYSASFLYSGVPSRFSGSRSGTDFTLTISSLQPEDFATYYCQQYEYYPMTFGQGTKVEIKRTGGGSGGGGSGGGASEVQLVESGGGLVQPGGSLRLSCAASGFNVMYSTMHWVRQAPGKGLEWVASIYSWSDYTYYADSVKGRFTISADTSKNTAYLQMNSLRAEDTAVYYCSRGYAHNSFDYWGQGTLVTVSS

- binding result [2]: no binding
- binding result [3]: no binding
- binding result [4]: no binding
- binding result [5]: no binding
B9: IDH2_R140Q_B7_c129 (scFv)
scFv: DIQMTQSPSSLSASVGDRVTITCRASQDVNTAVAWYQQKPGKAPKLLIYSASFLYSGVPSRFSGSRSGTDFTLTISSLQPEDFATYYCQQGKAYWPATFGQGTKVEIKRTGGGSGGGGSGGGASEVQLVESGGGLVQPGGSLRLSCAASGFNVGHYRMHWVRQAPGKGLEWVAMVSPNGYYTYYADSVKGRFTISADTSKNTAYLQMNSLRAEDTAVYYCSRGYSSYAFDYWGQGTLVTVSS
notes: also called IDH2 R140Q(134-143)-B7 c1.29

- binding result [6]: no binding
B10: CTNNB_S45_FA3 c17 (scFv)
scFv: DIQMTQSPSSLSASVGDRVTITCRASQDVNTAVAWYQQKPGKAPKLLIYSASFLYSGVPSRFSGSRSGTDFTLTISSLQPEDFATYYCQQQYAYTPITFGQGTKVEIKRTGGGSGGGGSGGGASEVQLVESGGGLVQPGGSLRLSCAASGFNVWSYGIHWVRQAPGKGLEWVAGVTPDGSYTYYADSVKGRFTISADTSKNTAYLQMNSLRAEDTAVYYCSRSYGWAMDYWGQGTLVTVSS

- binding result [7]: no binding
B11: KRAS_G12D_A11_D21 (scFv)
scFv: DIQMTQSPSSLSASVGDRVTITCRASQDVNTAVAWYQQKPGKAPKLLIYSASFLYSGVPSRFSGSRSGTDFTLTISSLQPEDFATYYCQQYAYYSPVTFGQGTKVEIKRTGGGSGGGGSGGGASEVQLVESGGGLVQPGGSLRLSCAASGFNIYGQMMHWVRQAPGKGLEWVAFLSPFSGNTYYADSVKGRFTISADTSKNTAYLQMNSLRAEDTAVYYCSRNISYEQSSAFDYWGQGTLVTVSS

- binding result [2]: no binding
- binding result [3]: no binding
- binding result [4]: no binding
- binding result [5]: no binding
B12: IDH2_R140Q_B7_c13 (scFv)
scFv: DIQMTQSPSSLSASVGDRVTITCRASQDVNTAVAWYQQKPGKAPKLLIYSASFLYSGVPSRFSGSRSGTDFTLTISSLQPEDFATYYCQQYSLYSPMTFGQGTKVEIKRTGGGSGGGGSGGGASEVQLVESGGGLVQPGGSLRLSCAASGFNSFLSIHWVRQAPGKGLEWVAHIFPSSDYTSYADSVKGRFTISADTSKNTAYLQMNSLRAEDTAVYYCSRGKHSSDSNYYMDYWGQGTLVTVSS
notes: also called IDH2 R140Q(134-143)-B7 c1.3

- binding result [1]: no binding
B13: KRAS G12V_A3_V12 (scFv)
scFv: DIQMTQSPSSLSASVGDRVTITCRASQDVNTAVAWYQQKPGKAPKLLIYSASFLYSGVPSRFSGSRSGTDFTLTISSLQPEDFATYYCQQASYYYPLTFGQGTKVEIKRTGGGSGGGGSGGGASEVQLVESGGGLVQPGGSLRLSCAASGFNISASGMHWVRQAPGKGLEWVADIHPLKPYTNYADSVKGRFTISADTSKNTAYLQMNSLRAEDTAVYYCSRYSSMYYYYFDYWGQGTLVTVSS

- binding result [1]: no binding
B14: KRAS G12V_A3_c122 (scFv)
scFv: DIQMTQSPSSLSASVGDRVTITCRASQDVNTAVAWYQQKPGKAPKLLIYSASFLYSGVPSRFSGSRSGTDFTLTISSLQPEDFATYYCQQGAYYRPFTFGQGTKVEIKRTGGGSGGGGSGGGASEVQLVESGGGLVQPGGSLRLSCAASGFNISYSYMHWVRQAPGKGLEWVATLLPYDGNTYYADSVKGRFTISADTSKNTAYLQMNSLRAEDTAVYYCSRAAYSSMDVWGQGTLVTVSS

- binding result [6]: no binding
B15: CTNNB_S45_FA3_c13 (scFv)
scFv: DIQMTQSPSSLSASVGDRVTITCRASQDVNTAVAWYQQKPGKAPKLLIYSAYFLYSGVPSRFSGSRSGTDFTLTISSLQPEDFATYYCQQIYTSPITFGQGTKVEIKRTGGGSGGGGSGGGASEVQLVESGGGLVQPGGSLRLSCAASGFNFITTGMHWVRQAPGKGLEWVARIGPGSDYTNYADSVKGRFTISADTSKNTAYLQMNSLRAEDTAVYYCSRYYYASALDYWGQGTLVTVSS

- binding result [2]: no binding
- binding result [3]: no binding
- binding result [4]: no binding
- binding result [5]: no binding
B16: IDH2_R140Q_B7_c18 (scFv)
scFv: DIQMTQSPSSLSASVGDRVTITCRASQDVNTAVAWYQQKPGKAPKLLIYSASFLYSGVPSRFSGSRSGTDFTLTISSLQPEDFATYYCQQSYYMPFTFGQGTKVEIKRTGGGSGGGGSGGGASEVQLVESGGGLVQPGGSLRLSCAASGFNIFRGYMHWVRQAPGKGLEWVAMISPHSDYTSYADSVKGRFTISADTSKNTAYLQMNSLRAEDTAVYYCSRSYGWAAFDYWGQGTLVTVSS

- binding result [6]: no binding
B17: CTNNB_S45_FA3 c19 (scFv)
scFv: DIQMTQSPSSLSASVGDRVTITCRASQDVNTAVAWYQQKPGKAPKLLIYSAYFLYSGVPSRFSGSRSGTDFTLTISSLQPEDFATYYCQQIHYKPLTFGQGTKVEIKRTGGGSGGGGSGGGASEVQLVESGGGLVQPGGSLRLSCAASGFNVAWYSIHWVRQAPGKGLEWVAQVYGGSSYTYYADSVKGRFTISADTSKNTAYLQMNSLRAEDTAVYYCSRDFYSSGMDYWGQGTLVTVSS

- binding result [7]: no binding
B18: KRAS_G12D_A11_D3 (scFv)
scFv: DIQMTQSPSSLSASVGDRVTITCRASQDVNTAVAWYQQKPGKAPKLLIYSASFLYSGVPSRFSGSRSGTDFTLTISSLQPEDFATYYCQQYSYYPITFGQGTKVEIKRTGGGSGGGGSGGGASEVQLVESGGGLVQPGGSLRLSCAASGFNFSYGYMHWVRQAPGKGLEWVAWISGYTGNTYYADSVKGRFTISADTSKNTAYLQMNSLRAEDTAVYYCSRAASLSSSYYSAFDVWGQGTLVTVSS

Further lines, the binder ahead of its results:

B1: KRAS G12V_A3_c120 (scFv)
scFv: DIQMTQSPSSLSASVGDRVTITCRASQDVNTAVAWYQQKPGKAPKLLIYSASFLYSGVPSRFSGSRSGTDFTLTISSLQPEDFATYYCQQKSEYSPWTFGQGTKVEIKRTGGGSGGGGSGGGASEVQLVESGGGLVQPGGSLRLSCAASGFNIYRYGIHWVRQAPGKGLEWVAVLYPYGYSTSYADSVKGRFTISADTSKNTAYLQMNSLRAEDTAVYYCSRSYAYGYFAYWGQGTLVTVSS
- binding result [1]: no binding

B2: IDH2_R140Q_B7_c11 (scFv)
scFv: DIQMTQSPSSLSASVGDRVTITCRASQDVNTAVAWYQQKPGKAPKLLIYSASFLYSGVPSRFSGSRSGTDFTLTISSLQPEDFATYYCQQVYSSPFTFGQGTKVEIKRTGGGSGGGGSGGGASEVQLVESGGGLVQPGGSLRLSCAASGFNVKYYMMHWVRQAPGKGLEWVAAISPGYDYTYYADSVKGRFTISADTSKNTAYLQMNSLRAEDTAVYYCSRSYWRYSVDVWGQGTLVTVSS
notes: also called IDH2 R140Q(134-143)-B7 c1.1
- binding result [2]: no binding
- binding result [3]: no binding
- binding result [4]: no binding
- binding result [5]: no binding

B3: CTNNB_S45F_A3_E10 (scFv)
scFv: DIQMTQSPSSLSASVGDRVTITCRASQDVNTAVAWYQQKPGKAPKLLIYSASFLYSGVPSRFSGSRSGTDFTLTISSLQPEDFATYYCQQSYYSPPTFGQGTKVEIKRTGGGSGGGASEVQLVESGGGLVQPGGSLRLSCAASGFNINNTYIHWVRQAPGKGLEWVASIYPTDGYTRYADSVKGRFTISADTSKNTAYLQMNSLRAEDTAVYYCSRTYYSYYSAMDVWGQGTLVTVSS
- binding result [6]: no binding

B4: KRAS_G12D_A11_D14 (scFv)
scFv: DIQMTQSPSSLSASVGDRVTITCRASQDVNTAVAWYQQKPGKAPKLLIYSASFLYSGVPSRFSGSRSGTDFTLTISSLQPEDFATYYCQQYSYTPVTFGQGTKVEIKRTGGGSGGGGSGGGASEVQLVESGGGLVQPGGSLRLSCAASGFNVWGPGMHWVRQAPGKGLEWVARIHPFSGNTYYADSVKGRFTISADTSKNTAYLQMNSLRAEDTAVYYCSRGYSYSAMDYWGQGTLVTVSS
- binding result [7]: no binding

B5: KRAS_G12D_A11_D18 (scFv)
scFv: B4 scFv with T94E, W153S, P155S, G156Q, H175P, P176G, F177W, N180Y, S226F
- binding result [7]: no binding

B6: CTNNB_S45_FA3_c14 (scFv)
scFv: DIQMTQSPSSLSASVGDRVTITCRASQDVNTAVAWYQQKPGKAPKLLIYSASFLYSGVPSRFSGSRSGTDFTLTISSLQPEDFATYYCQQRAYFPITFGQGTKVEIKRTGGGSGGGGSGGGASEVQLVESGGGLVQPGGSLRLSCAASGFNFSDYGMHWVRQAPGKGLEWVAMLIPASGYTNYADSVKGRFTISADTSKNTAYLQMNSLRAEDTAVYYCSRGWSYYMDYWGQGTLVTVSS
- binding result [6]: no binding

B7: KRAS G12V_A3_c121 (scFv)
scFv: DIQMTQSPSSLSASVGDRVTITCRASQDVNTAVAWYQQKPGKAPKLLIYSASFLYSGVPSRFSGSRSGTDFTLTISSLQPEDFATYYCQQSGYIPFTFGQGTKVEIKRTGGGSGGGGSGGGASEVQLVESGGGLVQPGGSLRLSCAASGFNIYGTMMHWVRQAPGKGLEWVAQFKPDSYNTYYADSVKGRFTISADTSKNTAYLQMNSLRAEDTAVYYCSRGEVYHYYAFDYWGQGTLVTVSS
- binding result [1]: no binding
